Target: GAL4-PGC-1β (yeast; mouse) (UniProt P04386)
Assay: cell-based or functional assay

Flag-tagged HCF
transcriptional activity of PGC-1β in a cotransfection assay (luciferase, BOSC cells, FIG. 9A): 3 fold

Reference: patent publication US20030124598A1
